Measurements from US20260274981A1 (VIB VZW, published 2026).

T1: cynomolgus TfR overexpressed on CHO cells (cynomolgus monkey, UniProt Q5RDH6 1-760 (Pongo abelii entry))
T1 construct: construct is TfR followed by an HA tag and IRES-GFP; also called cynomolgus monkey TfR1; NHP TfR
T1 chain: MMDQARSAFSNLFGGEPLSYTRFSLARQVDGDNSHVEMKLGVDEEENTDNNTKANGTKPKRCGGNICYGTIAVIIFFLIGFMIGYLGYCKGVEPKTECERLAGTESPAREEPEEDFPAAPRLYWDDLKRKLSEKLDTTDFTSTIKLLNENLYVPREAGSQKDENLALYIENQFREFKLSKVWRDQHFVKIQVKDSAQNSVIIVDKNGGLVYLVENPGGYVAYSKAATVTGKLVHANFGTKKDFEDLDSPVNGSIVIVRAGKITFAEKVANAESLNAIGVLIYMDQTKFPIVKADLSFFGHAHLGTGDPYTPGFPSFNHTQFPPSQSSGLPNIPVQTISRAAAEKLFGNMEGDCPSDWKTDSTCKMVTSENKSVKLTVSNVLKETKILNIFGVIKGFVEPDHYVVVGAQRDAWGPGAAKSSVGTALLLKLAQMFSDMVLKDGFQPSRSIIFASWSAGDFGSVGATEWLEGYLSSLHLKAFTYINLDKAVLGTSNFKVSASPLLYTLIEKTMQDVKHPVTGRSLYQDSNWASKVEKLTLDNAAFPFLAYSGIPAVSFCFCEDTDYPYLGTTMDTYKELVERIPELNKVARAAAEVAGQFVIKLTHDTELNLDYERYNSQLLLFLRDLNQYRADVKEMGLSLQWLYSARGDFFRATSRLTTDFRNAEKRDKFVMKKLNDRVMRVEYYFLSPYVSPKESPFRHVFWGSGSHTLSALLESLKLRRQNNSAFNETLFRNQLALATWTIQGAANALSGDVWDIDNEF


How the values were obtained:
[1] = biological target: T1, cynomolgus TfR overexpressed on CHO …; experiment: flow cytometry on CHO cells overexpressing cynomolgus TfR (CHO-cynoTfR), VHH detected with anti-FLAG-iFluor647; median Flag-i647 intensity in total GFP cells
Description: (§1) Output libraries were screened with flow cytometry to find binders to human TfR overexpressing cells (FIG. 1A). […] Binding kinetics to recombinant human and cynomolgus TfR were further characterized with Surface Plasmon Resonance (SPR).
(§2) Periplasmic extracts diluted 1:10 in PBS 2% FBS, or a dilution range of different VHH or bispecific antibody concentrations prepared in PBS 2% FBS, were incubated with 0.1 million CHO cells overexpressing either the human, cynomolgus or mouse TfR for 30 min at 4° C. As control for background binding, periplasmic extracts, VHHs or bispecific antibodies were also incubated with 0.1 million CHO cells overexpressing GFP. Binding of VHHs was next resolved by a second step 30 min incubation at 4° C. with an anti-FLAG-iFluor647 antibody (A01811, Genscript) diluted 1:500 for screening and 1:250 for validation assays, or with anti-human IgG Fc-Alexa Fluor647 antibody (410714, BioLegend) diluted 1:200. […] Cells were fixed with 4% paraformaldehyde before being analyzed. Flp-In™-CHO™ cells used as unstained control and single stain controls were used to determine the cut-off point between background fluorescence and positive populations. […] The data was acquired with an Attune Nxt flow cytometer (Invitrogen) and analyzed by FCS Express 7 Research Edition.

[2] = biological target: T2, mouse TfR overexpressed on CHO cells (mouse, UniProt Q62351 1-763); experiment: flow cytometry on CHO cells overexpressing mouse TfR (CHO-mTfR), VHH detected with anti-FLAG-iFluor647; median Flag-i647 intensity in total GFP cells
T2 construct: whole, on cells
T2 sequence (Q62351 whole entry): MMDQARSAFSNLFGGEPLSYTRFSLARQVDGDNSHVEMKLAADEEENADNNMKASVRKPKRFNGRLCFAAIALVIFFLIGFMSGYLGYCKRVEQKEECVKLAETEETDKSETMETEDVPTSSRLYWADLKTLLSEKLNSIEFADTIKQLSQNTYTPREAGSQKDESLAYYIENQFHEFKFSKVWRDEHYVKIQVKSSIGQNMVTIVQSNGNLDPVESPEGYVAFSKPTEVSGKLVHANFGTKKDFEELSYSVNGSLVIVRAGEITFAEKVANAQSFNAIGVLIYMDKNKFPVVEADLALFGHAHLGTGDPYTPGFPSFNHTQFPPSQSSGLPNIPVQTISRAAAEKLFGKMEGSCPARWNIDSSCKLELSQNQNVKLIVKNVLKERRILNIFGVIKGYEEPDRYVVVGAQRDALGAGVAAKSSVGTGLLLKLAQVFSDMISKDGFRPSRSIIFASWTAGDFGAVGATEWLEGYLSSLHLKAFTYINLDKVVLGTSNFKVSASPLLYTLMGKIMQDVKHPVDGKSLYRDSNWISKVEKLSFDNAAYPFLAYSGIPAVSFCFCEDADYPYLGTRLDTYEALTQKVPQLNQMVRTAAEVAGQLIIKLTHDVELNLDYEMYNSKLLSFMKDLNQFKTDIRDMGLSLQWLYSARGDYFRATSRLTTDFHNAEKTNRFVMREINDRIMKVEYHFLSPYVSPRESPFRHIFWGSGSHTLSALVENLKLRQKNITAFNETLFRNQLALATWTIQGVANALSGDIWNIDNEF
Description: as §1, §2

[3] = biological target: T3, recombinant human TfR (2474-TR, R&D Systems), biotinylated (human, UniProt P02786 89-760, biotinylated with EZ-Link NHS-PEG4-Biotinylation Kit); experiment: SPR (Biacore T200), biotinylated human TfR captured on an SA chip as ligand, VHH as analyte, single cycle kinetics, 1:1 binding model
T3 construct: Bought protein; also called immobilized recombinant human TfR; biotinylated human TfR
Text: Phage libraries generated after 4 biweekly immunizations of two different camelids, underwent two rounds of pannings on CHO cell lines overexpressing either cynomolgus TfR in the first round or human TfR in the second round. Output libraries were screened with flow cytometry to find binders to human TfR overexpressing cells (FIG. 1A). […] Binding kinetics to recombinant human and cynomolgus TfR were further characterized with Surface Plasmon Resonance (SPR).
Surface Plasmon Resonance (SPR) was used to measure the interaction between VHHs and human or cynomolgus TfR receptor. Human TfR (2474-TR, R&D Systems) and cynomolgus TfR (90253-C07H, Sino Biological) were biotinylated with the EZ-Link NHS-PEG4-Biotinylation Kit (ThermoFischer Scientific) according to the manufacturer instructions. The binding experiments were performed at 25° C. on a Biacore T200 instrument (Cytiva, Uppsala, Sweden) in HBS-EP+ buffer (10 mM HEPES, 150 mM NaCl, 3 mM EDTA and 0.05% v/v Surfactant P20). Biotinylated human TfR and cynomolgus TfR were captured on a SA sensor chip (Cytiva) at a density of around 250 RU. Increasing concentrations of VHHs were sequentially injected in one single cycle at a flow rate of 30 μl/min. The dissociation was monitored for 20 min. […] A reference flow was used as a control for non-specific binding and refractive index changes. Several buffer blanks were used for double referencing. Binding affinities (KD) and kinetic rate constants (kₒₙ, koff) were derived after fitting the experimental data to the 1:1 binding model with the Biacore T200 Evaluation Software 3.1 using the single cycle kinetic procedure. Each interaction was repeated a least three times.

EC50 (read off the curve) [1]	koff [3]	kon [3]	Binder	binding result [2]
~40 nM	0.00592 s⁻¹	29000 M⁻¹ s⁻¹	BBB00533 (VHH, Lead VHH expressed in E. coli TG1 and purified by IMAC; detected with anti-FLAG antibody in flow cytometry; also called BBB00533 VHH; not shown: C-terminal 3xFlag/6xHis tag from expression vector pBDS119) VHH: QVQLQESGGGSVQPGGSLRLSCTASGRTFNYAMGWFRQAPGKNREFVATIDWKDGSSYYLDSVRGRFTIERDDAKNTVYLQMNSLKPEDAAVYTCAVGDGDYCSTYTCAAEVEYDYWGQGTQVTVSS	no binding (tested: Log10 Conc 3.5 (about 3000 nM))
~8 nM	0.0137 s⁻¹	15000 M⁻¹ s⁻¹	BBB00515 (VHH, Lead VHH expressed in E. coli TG1 and purified by IMAC; detected with anti-FLAG antibody in flow cytometry; also called BBB00515 VHH; not shown: C-terminal 3xFlag/6xHis tag from expression vector pBDS119) VHH: QVQLQESGGGLVQAGGSLRLSCAASGSIFSINAMGWYRQAPGKQRELVAVITSGGSTIYADSVKGRFTISRDNAENTVYLQMNSLKPEDTAVYYCNAHVGLKVPTIQELSLGFGSWGQGTQVTVSS	no binding (tested: Log10 Conc 3.5 (about 3000 nM))
